Measured values: the supplement of paper PMC7125110
± gives the standard error. For part of these data: Variants at the floor of the assay were thinned out.

B1: glmS ribozyme (parent)
chain: AUAAAAGCGCCAGAACUACAGAAAUGUAGUUGACGAGGAGGAGGUUUAUCGAAUUUUCGGCGGAUGCCUCCAAA

Key:
Conditions in all cases: with glucosamine-6-phosphate
glucosamine-6-phosphate [1] = variants of: B1; test: kcat; higher = faster cleavage; RNA array
Method in brief: (§1)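 kcat and KM were obtained from weighted Michaelis–Menten fits across concentrations of kobs values. Those came from one- or two-exponential decay fits to per-tile medians normalised to baseline and to non-cleaving reference variants. The variants were barcoded ribozymes transcribed in situ by E. coli RNA polymerase on sequenced MiSeq chips and tracked through a hybridised Cy3 probe at 37 °C, with 40 μM to 10 mM glucosamine-6-phosphate in HEPES/KCl/Mg(OAc)2 buffer flowed in.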

glucosamine-6-phosphate [2] = variants of: B1; test: KM; higher = weaker cofactor use; RNA array
Method in brief: as §1

glucosamine-6-phosphate [3] = variants of: B1; test: self-cleavage kobs at 160 uM GlcN6P; higher = faster cleavage; RNA array
Method in brief: as §1

glucosamine-6-phosphate [4] = variants of: B1; test: self-cleavage kobs at 640 uM GlcN6P; higher = faster cleavage; RNA array
Method in brief: as §1

glucosamine-6-phosphate [5] = variants of: B1; test: self-cleavage kobs at 2500 uM GlcN6P; higher = faster cleavage; RNA array
Method in brief: as §1

glucosamine-6-phosphate [6] = variants of: B1; test: self-cleavage kobs at 10000 uM GlcN6P; higher = faster cleavage; RNA array
Method in brief: as §1

glucosamine-6-phosphate [7] = variants of: B1; test: self-cleavage kobs at 40 uM GlcN6P; higher = faster cleavage; RNA array
Method in brief: as §1

| Variant | kcat (glucosamine-6-phosphate [1]) [s⁻¹] | KM (glucosamine-6-phosphate [2]) [mM] | self-cleavage kobs at 160 uM GlcN6P (glucosamine-6-phosphate [3]) [s⁻¹] | self-cleavage kobs at 640 uM GlcN6P (glucosamine-6-phosphate [4]) [s⁻¹] | self-cleavage kobs at 2500 uM GlcN6P (glucosamine-6-phosphate [5]) [s⁻¹] | self-cleavage kobs at 10000 uM GlcN6P (glucosamine-6-phosphate [6]) [s⁻¹] | self-cleavage kobs at 40 uM GlcN6P (glucosamine-6-phosphate [7]) [s⁻¹] |
| --- | --- | --- | --- | --- | --- | --- | --- |
| A14C G41A | 0.000497 ± 9e-05 | 3.49 ± 1 | 3.59e-05 ± 1.5e-05 | 6.95e-05 ± 1.3e-05 | 0.000234 ± 4.5e-05 | 0.000358 ± 6.2e-05 | – |
| A33C U54C | 0.00039 ± 4.2e-05 | 1.95 ± 0.36 | – | 0.0001 ± 1.7e-05 | 0.000217 ± 3.9e-05 | 0.000325 ± 9.2e-05 | – |
| A39C A53U | 0.00502 ± 0.0011 | 2.73 ± 0.76 | 0.000227 ± 3.4e-05 | 0.000952 ± 0.00013 | 0.00344 ± 0.00044 | 0.00367 ± 0.00039 | 7.74e-05 ± 7.6e-06 |
| U45C U65C | 0.000282 ± 2.2e-05 | 6.72 ± 0.78 | – | – | 7.8e-05 ± 1.7e-05 | 0.000167 ± 4.8e-05 | – |
| C50U U69C | 2.88e-05 ± 9.3e-06 | – | 4.48e-05 ± 1.5e-05 | – | 4.75e-05 ± 1.5e-05 | – | – |
| A12C G66A | 0.00855 ± 0.0022 | 1.58 ± 0.57 | 0.000705 ± 0.00014 | 0.00241 ± 0.00027 | 0.00753 ± 0.0014 | 0.00648 ± 0.0015 | 0.00028 ± 7e-05 |
| A6G A33G | < 1e-05 | – | – | – | – | < 1e-05 | – |
| A53C U65G | 0.00136 ± 0.0002 | 3.42 ± 0.81 | 8.25e-05 ± 1.4e-05 | 0.000197 ± 2.5e-05 | 0.000555 ± 6.7e-05 | 0.00104 ± 0.0001 | – |
| C67U C71A | 0.000182 ± 3.8e-05 | – | 6.95e-05 ± 1.8e-05 | 6.34e-05 ± 9e-06 | 0.000131 ± 1.6e-05 | 0.000168 ± 2.2e-05 | – |
| C10U C68U | 1.42e-05 ± 6.5e-06 | – | – | – | – | – | < 1e-05 |
| A33G U49C U57A | 2.2e-05 ± 2.7e-06 | – | – | – | – | – | – |
| A48U U57C U69G C70U | < 1e-05 | – | – | – | – | – | – |
| A12G G29A | 0.000356 ± 6.4e-05 | 7.17 ± 1.9 | – | 3.29e-05 ± 1e-05 | 8.7e-05 ± 1.7e-05 | 0.000213 ± 4.3e-05 | – |
| A14U C58G | 0.000104 ± 9.8e-06 | 1.96 ± 0.71 | – | 3.48e-05 ± 1.2e-05 | 4.98e-05 ± 1.1e-05 | 8.81e-05 ± 7.2e-06 | – |
| A39G U69G | 0.000101 ± 1.5e-05 | – | 0.000114 ± 3.2e-05 | 7.75e-05 ± 1.3e-05 | 0.000143 ± 1.7e-05 | 9.32e-05 ± 1e-05 | 4.07e-05 ± 1.3e-05 |
| A36G A53U | 1.3e-05 ± 2.6e-06 | – | < 1e-05 | – | – | – | < 1e-05 |
| U45G U65C | 9.08e-05 ± 1.1e-05 | 3.06 ± 1.1 | – | – | 4.24e-05 ± 1.4e-05 | 6.91e-05 ± 1.3e-05 | – |
